Results as given in patent US20060141569A1, “Compositions and methods for the assay of G-protein coupled receptors and their ligands” (priority 2004, published 2006).

Tests used:
CB1 receptor = molecular target: T1, CB1 receptor (Homo sapiens, UniProt P21554); test: CB1 receptor FLIPR dose response in CB1-transfected CHEM-1 cells; format: cell-based; conditions: pHS vector (FIG. 10D)
T1 construct: ER export signal […]; expressed in transfected cells; host or cells: CHEM-1 (RBL-2H3) cells, pHS vector
T1 sequence (P21554 whole entry): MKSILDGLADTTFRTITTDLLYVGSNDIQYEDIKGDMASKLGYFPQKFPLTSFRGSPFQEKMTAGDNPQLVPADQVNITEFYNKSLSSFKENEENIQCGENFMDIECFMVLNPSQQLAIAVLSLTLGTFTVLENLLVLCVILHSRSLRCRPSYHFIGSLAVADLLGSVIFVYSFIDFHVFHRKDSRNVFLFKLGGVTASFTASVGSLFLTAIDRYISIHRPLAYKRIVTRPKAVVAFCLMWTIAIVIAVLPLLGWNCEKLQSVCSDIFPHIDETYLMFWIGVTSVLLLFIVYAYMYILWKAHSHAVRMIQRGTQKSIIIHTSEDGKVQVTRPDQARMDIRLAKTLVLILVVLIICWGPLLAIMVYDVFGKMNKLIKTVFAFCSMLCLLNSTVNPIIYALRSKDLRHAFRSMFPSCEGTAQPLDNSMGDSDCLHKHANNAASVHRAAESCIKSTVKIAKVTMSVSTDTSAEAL
Description: FIG. 10D is a graph depicting the agonist-induced CB1 receptor FLIPR® dose response for CB1-transfected CHEM-1 cells using the pHS vector.
Cells (50,000/well) were seeded in a 96 well FLIPR® plate (clear bottom, black wall TC plate) the day before the experiment, and then loaded with fluorescent calcium dye Fluo-4 or Indo-1 (Molecular Probes) and incubated for 30 minutes at 37° C. in the dark with Pluronic F-127 and Probenecid in HBSS buffer (with Ca^2+ and Mg^2+). The cells were then washed twice with HBSS and read for calcium mobilization after the ligand addition on FLEX Station or FLIPR®. The loading efficiency and integrity of the Ca^2+ flux assay were assessed by comparing the signaling response to ionomycin treatment before and after each run.

CXCR2 [1] = molecular target: T2, CXCR2 (Homo sapiens, UniProt P25025); test: CXCR2 membrane radioligand (125I-Groα) saturation binding; conditions: membranes of CHO cells transfected with CXCR2, pcDNA3 vector; 125I-Groα 0-2 nM (FIG. 7A)
T2 construct: expressed in transfected cells; host or cells: CHO cells, pcDNA3 vector, crude membranes of stably transfected cells
T2 sequence (P25025 1-360): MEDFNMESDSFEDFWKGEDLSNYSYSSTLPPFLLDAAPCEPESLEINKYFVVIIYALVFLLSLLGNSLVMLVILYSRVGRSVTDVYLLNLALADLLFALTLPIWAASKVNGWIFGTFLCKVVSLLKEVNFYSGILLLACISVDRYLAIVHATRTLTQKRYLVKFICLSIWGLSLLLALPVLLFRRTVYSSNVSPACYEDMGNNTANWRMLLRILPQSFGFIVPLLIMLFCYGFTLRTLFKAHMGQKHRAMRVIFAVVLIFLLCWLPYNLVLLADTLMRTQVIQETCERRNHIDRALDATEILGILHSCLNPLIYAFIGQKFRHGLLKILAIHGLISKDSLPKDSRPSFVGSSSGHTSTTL
Description: (§1) FIG. 7A is a graph depicting CXCR2 membrane radioligand saturation binding for membranes of CHO cells transfected with CXCR2 encoded by the mammalian expression vector pcDNA3. Specifically, 5 μg of GPCR membrane preps were incubated with increasing concentrations (0-2 nM) of ^125I-labeled ligand Groα (PerkinElmer, Wellesley, Mass.) in the absence or presence of an excess amount of cold ligand Groα.
as §1, with “7B” for “7A”, “CHEM-1” for “CHO”, “the” for “the mammalian”, “pHS.” for “pcDNA3.”, “preparation was” for “preps were”
1-5 μg/well of crude membrane protein was thawed and combined with 50,000 to 100,000 cpm of radioligand (2200 Ci/mmol) and cold competitors in assay buffer (50 mM Hepes, 5 mM MgCl2, 1 mM CaCl2, 0.2% BSA) for 2 hours at 25° C. Reactions were performed in 96-well GF/C glass fiber filter plates (PerkinElmer, Cat. No. 6005174, Wellesley, Mass.). […] The filter plate was then dried and counted on a Microbeta liquid scintillation counter (PerkinElmer, Wellesley, Mass.). […]

CXCR2 [2] = molecular target: T2, CXCR2; test: CXCR2 membrane radioligand (125I-Groα) competition binding; conditions: two site binding curve, FIG. 8A (pcDNA3/CHO membranes); 0.5 nM 125I-Groα; matches high affinity sites of FIG. 8B
Description: After 2 hours of incubation at room temperature, membranes were harvested to a 96-well GF/C filter plate, dried and counted using a Microbeta counter.
1-5 μg/well of crude membrane protein was thawed and combined with 50,000 to 100,000 cpm of radioligand (2200 Ci/mmol) and cold competitors in assay buffer (50 mM Hepes, 5 mM MgCl2, 1 mM CaCl2, 0.2% BSA) for 2 hours at 25° C. Reactions were performed in 96-well GF/C glass fiber filter plates (PerkinElmer, Cat. No. 6005174, Wellesley, Mass.). Binding was terminated by adding 100 μl/well of wash buffer (50 mM Hepes, pH 7.4, 500 mM NaCl, 0.1% BSA) and aspiration through the plate on a cell harvester, followed by three 0.2 ml washes with wash buffer. The filter plate was then dried and counted on a Microbeta liquid scintillation counter (PerkinElmer, Wellesley, Mass.).

Molecule	agonist type (efficacy) in FLIPR dose response (CB1 receptor)	Kd (CXCR2 [1]) [nM]	Ki (CXCR2 [2]) [nM]
CCCCCCC(C)(C)c1ccc([C@@H]2C[C@H](O)CC[C@H]2CCCO)c(O)c1 [CP55940]	partial agonists		
Groα		0.148	0.22
